Sequences and labels used below:
B1: human LAMA4 LG4-5 modules displayed on 293 cells (ligand)
chain: RNSHCHLSNSPRAIEHAYQYGGTANSRQEFEHLKGDFGAKSQFSIRLRTRSSHGMIFYVSDQEENDFMTLFLAHGRLVYMFNVGHKKLKIRSQEKYNDGLWHDVIFIRERSSGRLVIDGLRVLEESLPPTEATWKIKGPIYLGGVAPGKAVKNVQINSIYSFSGCLSNLQLNGASITSASQTFSVTPCFEGPMETGTYFSTEGGYVVLDESFNIGLKFEIAFEVRPRSSSGTLVHGHSVNGEYLNVHMKNGQVIVKVNNGIRDFSTSVTPKQSLCDGRWHRITVIRDSNVVQLDVDSEVNHVVGPLNPKPIDHREPVFVGGVPESLLTPRLAPSKPFTGCIRHFVIDGHPVSFSKAALVSGAVSINSCP
notes: pDisplay construct on 293 cells; vector tags and anchor not written here

Experiment [1] addresses T1, mouse MCAM-Fc fusion protein (mouse; human, UniProt Q8R2Y2 24-563).
T1 construct: extracellular domain; Made in house; also called mMCAM-Fc; 650-conjugated mouse MCAM-Fc; not shown: human IgG1 (Fc part of the fusion)
T1 sequence (looked up): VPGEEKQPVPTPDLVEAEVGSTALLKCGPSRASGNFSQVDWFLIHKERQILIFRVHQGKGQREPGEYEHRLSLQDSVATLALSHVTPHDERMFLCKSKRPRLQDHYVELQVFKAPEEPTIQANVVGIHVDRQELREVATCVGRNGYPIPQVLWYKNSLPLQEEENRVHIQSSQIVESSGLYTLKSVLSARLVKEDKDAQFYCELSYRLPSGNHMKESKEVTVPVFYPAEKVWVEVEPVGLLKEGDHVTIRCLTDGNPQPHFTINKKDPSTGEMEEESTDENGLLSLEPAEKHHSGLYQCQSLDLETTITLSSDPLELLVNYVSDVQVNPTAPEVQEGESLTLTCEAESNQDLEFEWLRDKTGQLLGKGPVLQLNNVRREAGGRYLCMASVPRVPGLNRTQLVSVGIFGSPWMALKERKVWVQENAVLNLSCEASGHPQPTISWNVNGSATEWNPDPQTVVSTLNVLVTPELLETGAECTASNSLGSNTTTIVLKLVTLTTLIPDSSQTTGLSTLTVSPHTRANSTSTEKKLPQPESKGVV
Description: flow cytometry on 293 cells displaying LAMA4 G-domain variants; % binding. The text has this: LGde1 has a full-length G domain (i.e., LG1-5) with LG1 deleted, LGde2 has a full-length G domain with LG2 deleted, and LGde3 has a full-length G domain with LG3 deleted. Recombinant MCAM-Fc protein was able to specifically bind 293 cells expressing LAMA4 variants LG1-5, LG1-3, and LGde 1 (LG23), but not 293 cells expressing LAMA 4 variants LG4-5, LGde2 (LG13), or LGde3 (LG12).
For orientation: In flow cytometry, cells or beads pass a laser one at a time.

For experiment [2], the target named is T2, human LAMA4 G domain (LG1-5) displayed on 293 cells (human, UniProt Q16363 830-1821).
T2 construct: the vector's tags and membrane anchor are not written here; also called LAMA4-displaying human 293 cells; full length
T2 sequence: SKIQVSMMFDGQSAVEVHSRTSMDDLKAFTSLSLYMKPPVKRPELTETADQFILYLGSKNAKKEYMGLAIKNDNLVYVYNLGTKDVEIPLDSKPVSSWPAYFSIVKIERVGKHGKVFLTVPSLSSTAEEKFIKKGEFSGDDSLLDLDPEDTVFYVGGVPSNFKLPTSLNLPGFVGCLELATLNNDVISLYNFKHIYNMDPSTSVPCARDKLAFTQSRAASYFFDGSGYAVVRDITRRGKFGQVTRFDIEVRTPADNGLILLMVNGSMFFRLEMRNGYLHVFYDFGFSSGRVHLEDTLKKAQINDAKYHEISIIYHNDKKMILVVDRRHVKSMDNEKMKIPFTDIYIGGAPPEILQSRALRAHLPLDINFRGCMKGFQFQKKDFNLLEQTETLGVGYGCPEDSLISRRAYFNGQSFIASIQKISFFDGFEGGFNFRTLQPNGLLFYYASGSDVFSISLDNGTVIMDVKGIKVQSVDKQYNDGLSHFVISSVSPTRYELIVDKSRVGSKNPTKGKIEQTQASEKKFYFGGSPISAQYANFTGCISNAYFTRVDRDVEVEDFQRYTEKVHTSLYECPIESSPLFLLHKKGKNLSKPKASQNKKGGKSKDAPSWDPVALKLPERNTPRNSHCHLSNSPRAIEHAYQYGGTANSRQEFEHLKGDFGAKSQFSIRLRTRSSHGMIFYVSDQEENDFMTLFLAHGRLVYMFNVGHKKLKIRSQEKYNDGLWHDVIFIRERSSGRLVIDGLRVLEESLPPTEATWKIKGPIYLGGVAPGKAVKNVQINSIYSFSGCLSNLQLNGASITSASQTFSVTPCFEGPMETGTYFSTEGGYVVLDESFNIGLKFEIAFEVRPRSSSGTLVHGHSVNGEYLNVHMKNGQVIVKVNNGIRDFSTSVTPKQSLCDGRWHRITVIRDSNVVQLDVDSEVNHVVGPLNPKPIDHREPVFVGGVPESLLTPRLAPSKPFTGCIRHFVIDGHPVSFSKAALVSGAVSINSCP
Description: flow cytometry on 293 cells displaying LAMA4 G-domain variants, anti-human-650 secondary antibody; MFI. The method, then: (§1) The 19C12 variants chimeric 19C12, H1+chiL, and H2+chiL, and buffer alone were tested for their ability to block the binding of LAMA4 to its ligand MCAM (as shown in FIG. 11) and to bind LAMA4-displaying cells (full length, LG1-3, LG4-5, or untransfected control) (as shown in FIG. 12). […] To test LAMA4 binding capacity, serially diluted antibodies were pre-incubated with LAMA4-displaying human 293 cells, followed by anti-human-650 secondary antibody incubation. Fluorescent signal was assessed via flow cytometric analyses and plotted as mean fluorescence intensity (MFI).

Experiment [3] deals with T3, human LAMA4 LG1-3 modules displayed on 293 cells (human, UniProt Q16363 830-1430).
T3 construct: pDisplay construct on 293 cells; vector tags and anchor not written here
T3 sequence: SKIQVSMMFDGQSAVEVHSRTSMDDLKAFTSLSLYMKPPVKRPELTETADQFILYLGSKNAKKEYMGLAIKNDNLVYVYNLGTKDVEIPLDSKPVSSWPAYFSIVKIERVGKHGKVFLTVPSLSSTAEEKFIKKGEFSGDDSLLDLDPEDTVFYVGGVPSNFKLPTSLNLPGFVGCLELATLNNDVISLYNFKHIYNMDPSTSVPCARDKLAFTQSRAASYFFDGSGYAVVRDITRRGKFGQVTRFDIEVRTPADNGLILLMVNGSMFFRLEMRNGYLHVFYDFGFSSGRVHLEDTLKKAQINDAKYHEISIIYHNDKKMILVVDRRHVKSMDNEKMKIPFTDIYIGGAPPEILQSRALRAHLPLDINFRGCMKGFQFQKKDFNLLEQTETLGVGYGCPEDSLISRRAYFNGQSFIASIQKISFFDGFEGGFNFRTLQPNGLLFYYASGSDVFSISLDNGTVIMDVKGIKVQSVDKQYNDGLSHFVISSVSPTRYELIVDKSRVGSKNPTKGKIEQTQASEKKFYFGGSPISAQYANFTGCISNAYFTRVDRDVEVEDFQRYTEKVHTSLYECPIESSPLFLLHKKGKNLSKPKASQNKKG
Described as above. The method, then: as §1

The target of experiment [4] is B1. The description is as above. The protocol: as §1
Experiment [5] has as its target T4, recombinant laminin 411 (human, UniProt P07942 22-1786; P11047 34-1609, limits assumed).
T4 construct: also called LAMA4 in complex with its gamma1 and beta1 chains
The experiment in a line: flow cytometric blocking assay; antibody pre-incubated with 650-labeled laminin 411; blocked partner: human MCAM on CHO cells; MFI. The method, then:
as §1
Following two washes with FACS buffer (1% FBS in PBS), cells were resuspended with 650-conjugated anti-pan-laminin antibody (1:1000; Novus Biologicals) and incubated for 20 min at 4° C., and washed again. Cells were analyzed for pan-laminin reactivity by flow cytometry using standard procedures.

For experiment [6], the target named is T2, human LAMA4 G domain (LG1-5) displayed …. The experiment in a line: flow cytometry on LAMA4-displaying 293 cells, anti-human-650 secondary antibody; MFI (binding experiment by paragraph 395 and by the plot; the legend paragraph 38 calls it blocking). The method, then: (§2) Position L49 of the 19C12 variable light chain was substituted with other amino acids, such as I, T, A, M, Q, or E (see Table 6) because they may confer improved stability relative to substitution to a cysteine. The 19C12 cysteine replacement variants were tested for their ability to bind LAMA4-displaying cells (FIG. 13) and to block the binding of LAMA4 to its ligand MCAM (FIG. 14). To test LAMA4 binding capacity, serially diluted antibodies were pre-incubated with LAMA4-displaying human 293 cells, followed by anti-human-650 secondary antibody incubation. […] Fluorescent signal was assessed via flow cytometric analyses and plotted as mean fluorescence intensity (MFI). The 19C12 cysteine replacement variants retain their MCAM blocking and LAMA4 binding activity to varying degrees.

Experiment [7] addresses T4, recombinant laminin 411. Description: flow cytometric blocking assay; antibody pre-incubated with 650-labeled laminin 411; blocked partner: human MCAM on CHO cells; MFI (blocking experiment by paragraph 395 and by the 411 / no 411 controls on the sheet; the legend paragraph 39 calls it binding). The protocol:
as §2

T4 sequence (chain, as listed by the source limits assumed, chain 1 of 3): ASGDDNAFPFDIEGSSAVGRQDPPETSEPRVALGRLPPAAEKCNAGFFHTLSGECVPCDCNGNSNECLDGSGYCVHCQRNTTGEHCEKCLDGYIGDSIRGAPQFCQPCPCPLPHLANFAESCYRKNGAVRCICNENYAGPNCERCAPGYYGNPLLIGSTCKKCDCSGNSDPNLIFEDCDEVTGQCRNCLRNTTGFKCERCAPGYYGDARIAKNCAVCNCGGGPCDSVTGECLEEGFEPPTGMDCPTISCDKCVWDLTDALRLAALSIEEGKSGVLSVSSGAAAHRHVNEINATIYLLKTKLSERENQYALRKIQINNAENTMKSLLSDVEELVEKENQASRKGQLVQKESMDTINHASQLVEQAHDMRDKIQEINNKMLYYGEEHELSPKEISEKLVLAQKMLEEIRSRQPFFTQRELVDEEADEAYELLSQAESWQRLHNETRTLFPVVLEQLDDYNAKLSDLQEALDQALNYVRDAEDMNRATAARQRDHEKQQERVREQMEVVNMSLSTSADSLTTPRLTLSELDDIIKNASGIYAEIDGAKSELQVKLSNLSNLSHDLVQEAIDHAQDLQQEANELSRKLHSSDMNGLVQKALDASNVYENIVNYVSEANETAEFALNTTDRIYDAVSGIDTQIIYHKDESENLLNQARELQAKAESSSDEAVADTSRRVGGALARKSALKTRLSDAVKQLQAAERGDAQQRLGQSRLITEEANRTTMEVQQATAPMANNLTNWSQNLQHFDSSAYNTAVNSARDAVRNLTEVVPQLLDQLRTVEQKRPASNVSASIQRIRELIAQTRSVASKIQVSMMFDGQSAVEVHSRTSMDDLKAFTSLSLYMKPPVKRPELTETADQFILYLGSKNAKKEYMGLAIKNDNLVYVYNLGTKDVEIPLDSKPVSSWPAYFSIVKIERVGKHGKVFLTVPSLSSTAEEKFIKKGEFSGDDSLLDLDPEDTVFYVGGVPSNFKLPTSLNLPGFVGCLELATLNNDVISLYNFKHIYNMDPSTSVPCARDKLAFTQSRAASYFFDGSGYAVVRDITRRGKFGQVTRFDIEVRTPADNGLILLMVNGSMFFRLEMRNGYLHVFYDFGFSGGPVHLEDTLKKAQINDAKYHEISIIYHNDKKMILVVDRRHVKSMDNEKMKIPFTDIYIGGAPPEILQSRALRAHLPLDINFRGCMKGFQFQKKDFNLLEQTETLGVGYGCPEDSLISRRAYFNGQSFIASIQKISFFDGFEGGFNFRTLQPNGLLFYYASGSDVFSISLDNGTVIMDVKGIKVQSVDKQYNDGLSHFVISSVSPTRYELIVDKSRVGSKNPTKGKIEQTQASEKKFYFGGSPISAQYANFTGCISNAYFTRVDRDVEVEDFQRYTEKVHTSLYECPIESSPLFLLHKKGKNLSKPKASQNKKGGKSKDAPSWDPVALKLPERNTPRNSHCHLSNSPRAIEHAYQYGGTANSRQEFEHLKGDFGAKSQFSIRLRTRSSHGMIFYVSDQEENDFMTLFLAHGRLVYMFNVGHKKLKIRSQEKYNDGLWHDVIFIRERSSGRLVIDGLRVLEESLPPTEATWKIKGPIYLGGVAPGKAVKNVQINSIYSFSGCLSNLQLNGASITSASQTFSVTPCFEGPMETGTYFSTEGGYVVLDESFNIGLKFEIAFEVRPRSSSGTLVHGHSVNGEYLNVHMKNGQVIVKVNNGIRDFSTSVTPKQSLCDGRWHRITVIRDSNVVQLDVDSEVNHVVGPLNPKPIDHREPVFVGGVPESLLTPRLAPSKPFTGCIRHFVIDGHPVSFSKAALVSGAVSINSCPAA
T4 sequence (P07942 22-1786 limits assumed, chain 2 of 3): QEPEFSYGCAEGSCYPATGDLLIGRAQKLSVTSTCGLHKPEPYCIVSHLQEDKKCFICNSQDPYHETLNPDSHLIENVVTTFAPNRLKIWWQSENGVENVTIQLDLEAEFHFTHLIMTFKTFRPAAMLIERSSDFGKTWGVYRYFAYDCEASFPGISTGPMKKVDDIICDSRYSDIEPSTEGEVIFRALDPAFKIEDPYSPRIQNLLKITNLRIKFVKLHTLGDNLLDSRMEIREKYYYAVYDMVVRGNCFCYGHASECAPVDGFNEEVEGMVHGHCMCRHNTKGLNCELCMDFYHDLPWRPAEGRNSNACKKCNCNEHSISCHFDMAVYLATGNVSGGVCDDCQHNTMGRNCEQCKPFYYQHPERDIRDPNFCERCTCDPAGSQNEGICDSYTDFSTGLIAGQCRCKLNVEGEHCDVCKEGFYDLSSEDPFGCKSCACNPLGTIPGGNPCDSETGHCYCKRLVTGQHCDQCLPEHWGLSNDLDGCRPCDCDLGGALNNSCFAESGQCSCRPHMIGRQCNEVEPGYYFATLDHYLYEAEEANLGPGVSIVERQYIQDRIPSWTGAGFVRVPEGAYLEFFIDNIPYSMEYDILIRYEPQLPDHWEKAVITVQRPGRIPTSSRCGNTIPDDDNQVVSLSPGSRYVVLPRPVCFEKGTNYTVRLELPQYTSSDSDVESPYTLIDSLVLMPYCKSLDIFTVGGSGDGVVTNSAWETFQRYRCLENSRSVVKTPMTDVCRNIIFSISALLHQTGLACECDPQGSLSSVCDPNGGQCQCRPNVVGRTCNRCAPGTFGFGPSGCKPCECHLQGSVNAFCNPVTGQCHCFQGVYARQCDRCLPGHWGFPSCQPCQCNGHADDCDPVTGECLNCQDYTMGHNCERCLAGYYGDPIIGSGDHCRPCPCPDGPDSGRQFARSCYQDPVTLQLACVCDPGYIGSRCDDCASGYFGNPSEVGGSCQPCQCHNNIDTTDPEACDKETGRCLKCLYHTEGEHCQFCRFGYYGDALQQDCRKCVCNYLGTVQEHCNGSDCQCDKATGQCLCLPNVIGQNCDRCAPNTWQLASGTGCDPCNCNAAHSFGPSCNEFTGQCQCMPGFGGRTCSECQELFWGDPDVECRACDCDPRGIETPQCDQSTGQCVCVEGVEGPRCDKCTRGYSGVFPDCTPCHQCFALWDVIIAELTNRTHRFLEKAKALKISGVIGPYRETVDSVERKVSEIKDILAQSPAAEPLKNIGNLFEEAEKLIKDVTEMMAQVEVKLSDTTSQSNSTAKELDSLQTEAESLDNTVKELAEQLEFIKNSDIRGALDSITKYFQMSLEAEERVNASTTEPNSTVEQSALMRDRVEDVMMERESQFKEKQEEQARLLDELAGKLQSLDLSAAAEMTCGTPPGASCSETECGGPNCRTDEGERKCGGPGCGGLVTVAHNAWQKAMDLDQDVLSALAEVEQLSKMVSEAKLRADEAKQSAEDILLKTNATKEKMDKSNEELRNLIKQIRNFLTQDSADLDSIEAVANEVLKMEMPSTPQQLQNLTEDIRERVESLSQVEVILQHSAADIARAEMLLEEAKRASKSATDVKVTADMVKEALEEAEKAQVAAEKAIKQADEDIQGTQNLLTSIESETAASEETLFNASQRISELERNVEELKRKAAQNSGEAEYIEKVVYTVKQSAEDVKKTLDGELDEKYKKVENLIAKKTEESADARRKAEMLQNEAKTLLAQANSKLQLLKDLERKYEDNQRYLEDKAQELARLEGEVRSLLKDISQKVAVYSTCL
T4 sequence (P11047 34-1609 limits assumed, chain 3 of 3): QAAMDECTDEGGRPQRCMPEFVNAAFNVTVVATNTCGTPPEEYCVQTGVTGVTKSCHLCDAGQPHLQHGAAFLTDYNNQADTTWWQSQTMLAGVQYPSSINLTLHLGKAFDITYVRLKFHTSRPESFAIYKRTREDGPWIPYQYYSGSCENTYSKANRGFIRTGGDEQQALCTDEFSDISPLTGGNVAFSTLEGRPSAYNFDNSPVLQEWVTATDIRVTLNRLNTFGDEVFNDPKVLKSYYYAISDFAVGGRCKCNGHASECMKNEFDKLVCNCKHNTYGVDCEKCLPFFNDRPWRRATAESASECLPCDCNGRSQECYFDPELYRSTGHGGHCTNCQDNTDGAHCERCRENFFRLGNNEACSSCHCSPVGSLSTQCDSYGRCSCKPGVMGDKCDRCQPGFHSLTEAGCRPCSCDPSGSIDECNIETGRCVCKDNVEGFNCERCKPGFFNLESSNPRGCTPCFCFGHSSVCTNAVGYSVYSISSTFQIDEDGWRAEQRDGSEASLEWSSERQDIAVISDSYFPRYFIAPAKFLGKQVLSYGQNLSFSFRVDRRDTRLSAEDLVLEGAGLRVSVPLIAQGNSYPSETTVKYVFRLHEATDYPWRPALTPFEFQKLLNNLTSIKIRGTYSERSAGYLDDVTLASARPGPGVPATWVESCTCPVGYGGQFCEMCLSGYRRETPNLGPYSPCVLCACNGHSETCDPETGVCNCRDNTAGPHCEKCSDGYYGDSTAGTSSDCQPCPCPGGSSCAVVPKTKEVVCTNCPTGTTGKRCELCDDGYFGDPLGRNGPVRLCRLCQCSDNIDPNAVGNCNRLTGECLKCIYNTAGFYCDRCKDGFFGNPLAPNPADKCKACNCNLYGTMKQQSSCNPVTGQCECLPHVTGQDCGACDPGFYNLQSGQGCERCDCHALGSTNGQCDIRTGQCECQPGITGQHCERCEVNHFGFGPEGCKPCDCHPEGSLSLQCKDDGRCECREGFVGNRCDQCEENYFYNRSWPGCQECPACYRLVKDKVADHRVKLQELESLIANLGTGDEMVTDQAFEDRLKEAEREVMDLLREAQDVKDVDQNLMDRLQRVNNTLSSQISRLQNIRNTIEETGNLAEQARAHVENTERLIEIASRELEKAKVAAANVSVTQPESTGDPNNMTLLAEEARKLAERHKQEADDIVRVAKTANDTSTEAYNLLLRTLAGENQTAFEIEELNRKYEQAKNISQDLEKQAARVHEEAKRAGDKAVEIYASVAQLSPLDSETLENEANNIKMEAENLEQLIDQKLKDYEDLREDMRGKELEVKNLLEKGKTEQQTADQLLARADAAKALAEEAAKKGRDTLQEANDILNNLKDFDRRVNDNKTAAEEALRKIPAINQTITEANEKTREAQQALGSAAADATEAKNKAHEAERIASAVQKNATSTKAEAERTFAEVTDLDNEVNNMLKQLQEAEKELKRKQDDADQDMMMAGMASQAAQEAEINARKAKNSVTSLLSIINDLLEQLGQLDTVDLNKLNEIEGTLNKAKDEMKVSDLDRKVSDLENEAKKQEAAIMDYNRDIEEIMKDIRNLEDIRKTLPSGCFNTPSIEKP

With B1, the binding result in experiment [1] is listed as “no binding”.

B2: 19C12 variant H1+ChiL (antibody, V domains shown)
VH: QVQLQQSGAELVKPGASVKISCKASGYAFSTYWMNWVKQAPGEGLEWIGQIYPGDGDTNYNGKFKGRVTLTADKSTSTAYMELSSLRSEDTAVYFCARSDGYYDYWGQGTTVTVSS
VL: NIVLTQSPASLAVSLGQRATISCRASESVDSYGTSFMHWYQQKPGQPPKLLICLASSLESGVPARFSGSGSRTDFTLTIDPVEADDAATYYCQQNNEDPPTFGAGTKLELKR
notes: Humanized heavy chain version 1 (Hu19C12VHv1) paired with the chimeric light chain; Human constant regions not specified
Turning to B2, the binding result is listed as “binds” in experiment [2], “binds” in experiment [3], “no binding (tested: 5 ug/ml)” in experiment [4] and “binds” with recombinant laminin 411 [5].

B3: 19C12 variant H2+ChiL (antibody, V domains shown)
VH: QVQLQQSGAELVKPGASVKVSCKASGYAFSTYWMNWVRQAPGQGLEWIGQIYPGDGDTNYNGKFKGRVTITADKSTSTAYMELSSLRSEDTAVYFCARSDGYYDYWGQGTTVTVSS
VL: NIVLTQSPASLAVSLGQRATISCRASESVDSYGTSFMHWYQQKPGQPPKLLICLASSLESGVPARFSGSGSRTDFTLTIDPVEADDAATYYCQQNNEDPPTFGAGTKLELKR
notes: Humanized heavy chain version 2 (Hu19C12VHv2) paired with the chimeric light chain; Human constant regions not specified
With B3, the binding result in experiment [2] is listed as “binds”; in experiment [3], “binds”; in experiment [4], “no binding (tested: 5 ug/ml)”; with recombinant laminin 411 [5] it was “binds”.

B4: H2L5 (antibody, V domains shown)
VH: QVQLQQSGAELVKPGASVKVSCKASGYAFSTYWMNWVRQAPGQGLEWIGQIYPGDGDTNYNGKFKGRVTITADKSTSTAYMELSSLRSEDTAVYFCARSDGYYDYWGQGTTVTVSS
VL: DIVLTQSPASLAVSLGERATISCRASESVDSYGTSFMHWYQQKPGQPPKLLISLASSLESGVPARFSGSGSGTDFTLTISPLQAEDVATYYCQQNNEDPPTFGQGTKLEIK
notes: also called VHv2/VLv5; humanized 19C12 antibody H2L5; copies: 2 + 2
For B4, the binding result in experiment [6] is “binds”.

B5: H3L3 (antibody, V domains shown)
VH: EVQLQQSGAELVKPGASVKVSCKASGYAFSTYWMNWVRQAPGQGLEWIGQIYPGDGDTNYNGKFKGRVTITADKSTSTAYMELSSLRSEDTAVYFCARSDGYYDYWGQGTTVTVSS
VL: NIVLTQSPASLAVSLGERATISCRASESVDSYGTSFMHWYQQKPGQPPKLLICLASSLESGVPARFSGSGSRTDFTLTIDPVEAEDAATYYCQQNNEDPPTFGAGTKLEIK
notes: also called VHv3/VLv3; humanized 19C12 antibody H3L3; copies: 2 + 2
As for B5, the binding result (with recombinant laminin 411 [7]; in experiment [6]) was “binds” throughout.
